{"source": "the supplement of paper PMC9732359", "test": "protein stability index of a GFP-peptide fusion (yeast GPS) (PSI 1-4); higher = more stable; sorted into four equal gates, so the index is relative within each strain", "in_short": "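Plasmids in a pooled yeast library fused tiled 17-residue yeast protein peptides downstream of GFP and also expressed Cherry. Mid-log cultures grown without leucine were sorted into four equal gates by GFP/Cherry fluorescence ratio. Each gate's plasmids were PCR-amplified and Illumina-sequenced, and reads were matched to strains by barcodes. The protein stability index is derived by multiplying each gate's read frequency by its gate number and summing the results.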", "note": "± gives the uncertainty stated by the source.", "data": [{"sequence": "SNEFVPNTSDNNNNSNN [SWI1]", "values": [{"measurement": "protein stability index", "setting": "doa10∆", "result": "2.59 ± 0.1"}, {"measurement": "protein stability index", "setting": "pdr5∆", "result": "2.79 ± 0.11"}, {"measurement": "protein stability index", "setting": "san1∆", "result": "2.71 ± 0.095"}, {"measurement": "protein stability index", "setting": "ubr1∆", "result": "2.88 ± 0.066"}]}, {"sequence": "SNGFNNVTFGSKKDPRI [YMR153W/NUP53]", "values": [{"measurement": "protein stability index", "setting": "doa10∆", "result": "2.77 ± 0.048"}, {"measurement": "protein stability index", "setting": "pdr5∆", "result": "2.74 ± 0.059"}, {"measurement": "protein stability index", "setting": "san1∆", "result": "2.89 ± 0.045"}, {"measurement": "protein stability index", "setting": "ubr1∆", "result": "2.87 ± 0.046"}]}, {"sequence": "SNGGGKVKPIRGFCQRL [RPO31]", "values": [{"measurement": "protein stability index", "setting": "doa10∆", "result": "2.94 ± 0.13"}, {"measurement": "protein stability index", "setting": "pdr5∆", "result": "3.12 ± 0.11"}, {"measurement": "protein stability index", "setting": "san1∆", "result": "3.09 ± 0.097"}, {"measurement": "protein stability index", "setting": "ubr1∆", "result": "3.25 ± 0.065"}]}, {"sequence": "SNGNNLPLNKPRLEKLI [RGR1]", "values": [{"measurement": "protein stability index", "setting": "doa10∆", "result": "3.27 ± 0.052"}, {"measurement": "protein stability index", "setting": "pdr5∆", "result": "3.36 ± 0.056"}, {"measurement": "protein stability index", "setting": "san1∆", "result": "3.18 ± 0.055"}, {"measurement": "protein stability index", "setting": "ubr1∆", "result": "3.16 ± 0.063"}]}, {"sequence": "SNIITKSLVQYIELLPN [DIS3]", "values": [{"measurement": "protein stability index", "setting": "doa10∆", "result": "2.64 ± 0.072"}, {"measurement": "protein stability index", "setting": "pdr5∆", "result": "2.08 ± 0.065"}, {"measurement": "protein stability index", "setting": "san1∆", "result": "2.22 ± 0.072"}, {"measurement": "protein stability index", "setting": "ubr1∆", "result": "2.38 ± 0.05"}]}, {"sequence": "SNIPRGSVIQTHIAESA [MCD1]", "values": [{"measurement": "protein stability index", "setting": "doa10∆", "result": "2.81 ± 0.1"}, {"measurement": "protein stability index", "setting": "pdr5∆", "result": "2.88 ± 0.084"}, {"measurement": "protein stability index", "setting": "san1∆", "result": "2.62 ± 0.09"}, {"measurement": "protein stability index", "setting": "ubr1∆", "result": "2.91 ± 0.051"}]}, {"sequence": "SNLEKLPKYKEKKAASA [MED7]", "values": [{"measurement": "protein stability index", "setting": "doa10∆", "result": "2.14 ± 0.06"}, {"measurement": "protein stability index", "setting": "pdr5∆", "result": "2.82 ± 0.06"}, {"measurement": "protein stability index", "setting": "san1∆", "result": "2.83 ± 0.06"}, {"measurement": "protein stability index", "setting": "ubr1∆", "result": "2.25 ± 0.057"}]}, {"sequence": "SNLSPDLKFKRHKNKHI [DSN1]", "values": [{"measurement": "protein stability index", "setting": "doa10∆", "result": "2.71 ± 0.1"}, {"measurement": "protein stability index", "setting": "pdr5∆", "result": "2.58 ± 0.15"}, {"measurement": "protein stability index", "setting": "san1∆", "result": "2.28 ± 0.077"}, {"measurement": "protein stability index", "setting": "ubr1∆", "result": "2.17 ± 0.13"}]}, {"sequence": "SNLTIYPIYELLMSCPR [GRR1]", "values": [{"measurement": "protein stability index", "setting": "doa10∆", "result": "1.72 ± 0.083"}, {"measurement": "protein stability index", "setting": "pdr5∆", "result": "1.75 ± 0.071"}, {"measurement": "protein stability index", "setting": "san1∆", "result": "1.89 ± 0.13"}, {"measurement": "protein stability index", "setting": "ubr1∆", "result": "1.83 ± 0.056"}]}, {"sequence": "SNMILGSVELSTGDYTF [YML103C/NUP188]", "values": [{"measurement": "protein stability index", "setting": "doa10∆", "result": "2.48 ± 0.055"}, {"measurement": "protein stability index", "setting": "pdr5∆", "result": "2.35 ± 0.065"}, {"measurement": "protein stability index", "setting": "san1∆", "result": "2.16 ± 0.077"}, {"measurement": "protein stability index", "setting": "ubr1∆", "result": "2.43 ± 0.037"}]}, {"sequence": "SNMQKSLLPYYHLTKAV [RPN3]", "values": [{"measurement": "protein stability index", "setting": "doa10∆", "result": "2.02 ± 0.038"}, {"measurement": "protein stability index", "setting": "pdr5∆", "result": "1.87 ± 0.044"}, {"measurement": "protein stability index", "setting": "san1∆", "result": "1.85 ± 0.062"}, {"measurement": "protein stability index", "setting": "ubr1∆", "result": "1.92 ± 0.033"}]}, {"sequence": "SNNITSGLNRAISTGNW [RET1]", "values": [{"measurement": "protein stability index", "setting": "doa10∆", "result": "3.13 ± 0.11"}, {"measurement": "protein stability index", "setting": "pdr5∆", "result": "3.37 ± 0.11"}, {"measurement": "protein stability index", "setting": "san1∆", "result": "3.25 ± 0.061"}, {"measurement": "protein stability index", "setting": "ubr1∆", "result": "3 ± 0.079"}]}, {"sequence": "SNQFKRSLATAVATPKA [COR1]", "values": [{"measurement": "protein stability index", "setting": "doa10∆", "result": "1.55 ± 0.051"}, {"measurement": "protein stability index", "setting": "pdr5∆", "result": "1.75 ± 0.049"}, {"measurement": "protein stability index", "setting": "san1∆", "result": "1.35 ± 0.089"}, {"measurement": "protein stability index", "setting": "ubr1∆", "result": "1.3 ± 0.041"}]}, {"sequence": "SNQRFKDLQWLEFARIT [SIN4]", "values": [{"measurement": "protein stability index", "setting": "doa10∆", "result": "3.17 ± 0.064"}, {"measurement": "protein stability index", "setting": "pdr5∆", "result": "3.13 ± 0.057"}, {"measurement": "protein stability index", "setting": "san1∆", "result": "2.74 ± 0.068"}, {"measurement": "protein stability index", "setting": "ubr1∆", "result": "3.15 ± 0.073"}]}, {"sequence": "SNRCIVFSKKEPFPHSK [CSN12]", "values": [{"measurement": "protein stability index", "setting": "doa10∆", "result": "2.58 ± 0.052"}, {"measurement": "protein stability index", "setting": "pdr5∆", "result": "2.85 ± 0.047"}, {"measurement": "protein stability index", "setting": "san1∆", "result": "2.81 ± 0.065"}, {"measurement": "protein stability index", "setting": "ubr1∆", "result": "2.72 ± 0.043"}]}, {"sequence": "SNSDNCPEEFAESMCQE [SNF5]", "values": [{"measurement": "protein stability index", "setting": "doa10∆", "result": "3.25 ± 0.065"}, {"measurement": "protein stability index", "setting": "pdr5∆", "result": "3.33 ± 0.069"}, {"measurement": "protein stability index", "setting": "san1∆", "result": "3.27 ± 0.041"}, {"measurement": "protein stability index", "setting": "ubr1∆", "result": "3.01 ± 0.068"}]}, {"sequence": "SNTYKEERSNNLLTPQP [MCD1]", "values": [{"measurement": "protein stability index", "setting": "doa10∆", "result": "2.76 ± 0.078"}, {"measurement": "protein stability index", "setting": "pdr5∆", "result": "3.18 ± 0.094"}, {"measurement": "protein stability index", "setting": "san1∆", "result": "3.01 ± 0.046"}, {"measurement": "protein stability index", "setting": "ubr1∆", "result": "3.2 ± 0.051"}]}, {"sequence": "SNVFGSNNSTTNTFGSN [YJL041W/NSP1]", "values": [{"measurement": "protein stability index", "setting": "doa10∆", "result": "3.08 ± 0.063"}, {"measurement": "protein stability index", "setting": "pdr5∆", "result": "3.44 ± 0.076"}, {"measurement": "protein stability index", "setting": "san1∆", "result": "3.22 ± 0.043"}, {"measurement": "protein stability index", "setting": "ubr1∆", "result": "3.47 ± 0.054"}]}, {"sequence": "SNYSRTMTISHLLLGFQ [YJL039C/NUP192]", "values": [{"measurement": "protein stability index", "setting": "doa10∆", "result": "1.82 ± 0.05"}, {"measurement": "protein stability index", "setting": "pdr5∆", "result": "1.69 ± 0.044"}, {"measurement": "protein stability index", "setting": "san1∆", "result": "1.59 ± 0.058"}, {"measurement": "protein stability index", "setting": "ubr1∆", "result": "2.1 ± 0.034"}]}, {"sequence": "SPHYNSQKQTLIKKPLT [SSN3]", "values": [{"measurement": "protein stability index", "setting": "doa10∆", "result": "2.52 ± 0.064"}, {"measurement": "protein stability index", "setting": "pdr5∆", "result": "2.87 ± 0.056"}, {"measurement": "protein stability index", "setting": "san1∆", "result": "2.46 ± 0.058"}, {"measurement": "protein stability index", "setting": "ubr1∆", "result": "2.65 ± 0.036"}]}, {"sequence": "SPISDSRDELIRLAKTL [RPN10]", "values": [{"measurement": "protein stability index", "setting": "doa10∆", "result": "1.84 ± 0.095"}, {"measurement": "protein stability index", "setting": "pdr5∆", "result": "1.77 ± 0.084"}, {"measurement": "protein stability index", "setting": "san1∆", "result": "2.37 ± 0.16"}, {"measurement": "protein stability index", "setting": "ubr1∆", "result": "2.24 ± 0.085"}]}, {"sequence": "SPIVNVLEDVYRCFAQL [RRI2]", "values": [{"measurement": "protein stability index", "setting": "doa10∆", "result": "2.53 ± 0.18"}, {"measurement": "protein stability index", "setting": "pdr5∆", "result": "3.19 ± 0.17"}, {"measurement": "protein stability index", "setting": "san1∆", "result": "2.9 ± 0.14"}, {"measurement": "protein stability index", "setting": "ubr1∆", "result": "3.09 ± 0.083"}]}, {"sequence": "SPMGNAYSMGAQNQGGQ [PGD1]", "values": [{"measurement": "protein stability index", "setting": "doa10∆", "result": "2.57 ± 0.062"}, {"measurement": "protein stability index", "setting": "pdr5∆", "result": "2.91 ± 0.069"}, {"measurement": "protein stability index", "setting": "san1∆", "result": "2.91 ± 0.064"}, {"measurement": "protein stability index", "setting": "ubr1∆", "result": "2.71 ± 0.043"}]}, {"sequence": "SPMLYKVPDISSDGQLK [BRR2]", "values": [{"measurement": "protein stability index", "setting": "doa10∆", "result": "2.52 ± 0.047"}, {"measurement": "protein stability index", "setting": "pdr5∆", "result": "2.56 ± 0.045"}, {"measurement": "protein stability index", "setting": "san1∆", "result": "2.61 ± 0.054"}, {"measurement": "protein stability index", "setting": "ubr1∆", "result": "2.58 ± 0.03"}]}, {"sequence": "SPNPTLQPVIPGGAASK [SNF5]", "values": [{"measurement": "protein stability index", "setting": "doa10∆", "result": "3.23 ± 0.093"}, {"measurement": "protein stability index", "setting": "pdr5∆", "result": "3.24 ± 0.082"}, {"measurement": "protein stability index", "setting": "san1∆", "result": "3.19 ± 0.058"}, {"measurement": "protein stability index", "setting": "ubr1∆", "result": "2.88 ± 0.059"}]}, {"sequence": "SPSYSPTSPSYSPTSPS [RPO21]", "values": [{"measurement": "protein stability index", "setting": "doa10∆", "result": "2 ± 0.032"}, {"measurement": "protein stability index", "setting": "pdr5∆", "result": "2.33 ± 0.03"}, {"measurement": "protein stability index", "setting": "san1∆", "result": "2.06 ± 0.034"}, {"measurement": "protein stability index", "setting": "ubr1∆", "result": "2.1 ± 0.025"}]}]}
